{"source": "patent US20170159065A1", "about": "(VIB VZW, published 2017)", "binders": {"B1": {"name": "PPD2 (PEAPOD2) (other, Arabidopsis thaliana, UniProt Q8GY55 1-315, looked up)", "chain": "MDVGVTTAKSILEKPLKLLTEEDISQLTREDCRKFLKEKGMRRPSWNKSQAIQQVLSLKALYEPGDDSGAGILRKILVSQPPNPPRVTTTLIEPRNELEACGRIPLQEDDGACHRRDSPRSAEFSGSSGQFVADKDSHKTVSVSPRSPAETNAVVGQMTIFYSGKVNVYDGVPPEKARSIMHFAANPIDLPENGIFASSRMISKPMSKEKMVELPQYGLEKAPASRDSDVEGQANRKVSLQRYLEKRKDRRFSKTKKAPGVASSSLEMFLNRQPRMNAAYSQNLSGTGHCESPENQTKSPNISVDLNSDLNSEDN", "notes": "Used as tagged bait in TAP from Arabidopsis cell culture and as a GAL4 fusion in Y2H/Y3H; the tags and fusion partners are not described; also called PPD2-HBH"}, "B2": {"name": "PPD1 (other, Arabidopsis thaliana, UniProt Q7XA73 1-313, looked up)", "chain": "MDVGVSPAKSILAKPLKLLTEEDISQLTREDCRKFLKDKGMRRPSWNKSQAIQQVLSLKALYEPGDDSGAGIFRKILVSQPVNPPRVTTTLIEPSNELEACGRVSYPEDNGACHRMDSPRSAEFSGGSGHFVSEKDGHKTTISPRSPAETSELVGQMTIFYSGKVNVYDGIPPEKARSIMHFAANPIDLPENGIFASSRMISKLISKEKMMELPQKGLEKANSSRDSGMEGQANRKVSLQRYREKRKDRKFSKAKKCPGVASSSLEMFLNCQPRMKAAYSQNLGCTGSPLHSQSPESQTKSPNLSVDLNSEGI", "notes": "Y2H fusion; also called PEAPOD1"}}, "key": {"[1]": {"molecular_target": "the molecule itself", "assay": "yeast two-hybrid"}, "[2]": {"molecular_target": "T1, JAZ3 (Arabidopsis, UniProt Q9LVI4 1-352)", "T1 construct": "Endogenous prey in TAP; Y2H fusion in the yeast assays", "T1 sequence (looked up)": "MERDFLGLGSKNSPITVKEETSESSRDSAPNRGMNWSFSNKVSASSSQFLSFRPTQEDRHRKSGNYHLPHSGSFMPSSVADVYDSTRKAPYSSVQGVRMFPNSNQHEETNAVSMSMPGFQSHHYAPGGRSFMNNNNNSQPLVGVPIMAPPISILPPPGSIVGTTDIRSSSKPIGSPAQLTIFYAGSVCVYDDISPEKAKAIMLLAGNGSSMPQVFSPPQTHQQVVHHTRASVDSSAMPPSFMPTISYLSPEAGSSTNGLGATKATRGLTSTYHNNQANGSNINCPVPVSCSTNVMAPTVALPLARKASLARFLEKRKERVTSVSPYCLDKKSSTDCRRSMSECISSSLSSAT", "assay": "tandem affinity purification (TAP) from Arabidopsis cell culture, Orbitrap mass spectrometry", "from_the_text": "(§1) PPD proteins belong to the class II of the TIFY protein family together with 12 JAZ proteins […]. In the TIFY proteins, diverse domains are associated with different protein-protein interaction abilities, previously being able to isolate, by using tandem affinity purification (TAP), protein complexes from Arabidopsis cell cultures over-expressing JAZ proteins and to identify their interacting proteins (Pauwels et al., 2010). In order to determine the protein complex associated to PPD2, an updated and more sensitive protocol was applied using Orbitrap mass spectrometry (Eloy et al., 2012). […] To test this hypothesis, all 12 JAZ proteins, PPD1, PPD2 and TIFY8 for interaction with the PPD proteins were tested using yeast two-hybrid (Y2H) assays. These confirmed direct interaction with JAZ3 and TIFY8 and provided evidence of homo- and heterodimerization between PPD1 and PPD2. Moreover, the TAP analysis identified the TPL-adaptor protein NINJA and two proteins of yet unknown function, encoded by At3g24150 and At4g32295 and named KIX8 and KIX9 (see Table 3, Thakur et al., 2013)."}, "[3]": {"molecular_target": "T2, TIFY8 (Arabidopsis, UniProt Q84MB2 1-361)", "T2 sequence (looked up)": "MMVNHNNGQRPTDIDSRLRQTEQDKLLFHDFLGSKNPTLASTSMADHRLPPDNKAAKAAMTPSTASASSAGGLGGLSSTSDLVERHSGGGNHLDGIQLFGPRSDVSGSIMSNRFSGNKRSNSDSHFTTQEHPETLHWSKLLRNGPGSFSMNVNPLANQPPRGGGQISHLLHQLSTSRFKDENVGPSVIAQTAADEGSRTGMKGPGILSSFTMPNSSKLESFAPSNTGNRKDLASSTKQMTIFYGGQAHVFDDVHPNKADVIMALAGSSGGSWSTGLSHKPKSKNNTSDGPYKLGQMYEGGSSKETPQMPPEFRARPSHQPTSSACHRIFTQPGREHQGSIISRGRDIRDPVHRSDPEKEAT", "assay": "tandem affinity purification (TAP) from Arabidopsis cell culture, Orbitrap mass spectrometry", "from_the_text": "as §1"}, "[4]": {"molecular_target": "B1", "assay": "yeast two-hybrid"}}}
{"binder": "B1", "values": [{"measurement": "binding result", "setting": "[1]", "value": "binds"}, {"measurement": "binding result", "setting": "[2]", "value": "binds"}, {"measurement": "binding result", "setting": "[3]", "value": "binds"}]}
{"binder": "B2", "values": [{"measurement": "binding result", "setting": "[4]", "value": "binds"}, {"measurement": "binding result", "setting": "[1]", "value": "binds"}]}
